The text below walks through data of patent US20090298167A1.

This experiment deals with human IL-21 (human) (UniProt Q9HBE4). As to the kind of experiment: cell-based or functional assay.
human IL-21 (human), sequence (Q9HBE4 25-162 limits assumed): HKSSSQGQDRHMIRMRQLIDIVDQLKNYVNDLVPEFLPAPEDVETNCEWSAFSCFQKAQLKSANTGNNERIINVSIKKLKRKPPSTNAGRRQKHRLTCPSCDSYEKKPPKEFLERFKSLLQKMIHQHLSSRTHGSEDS

“human IL-21R-Fc (from UniProt Q9HBE5 20-232) (Fc fusion)” showed a Human IL-21R-BaF3 Neutralization IC50 of 0.2 nM.
